Target: the molecule itself
Assay: SEC + native gel or EMSA

B1: C-terminally truncated Mycobacterium tuberculosis MmpL3 (ΔC Mtb-MmpL3, aa 1–753) (domain or fragment)
chain: MFAWWGRTVYRYRFIVIGVMVALCLGGGVFGLSLGKHVTQSGFYDDGSQSVQASVLGDQVYGRDRSGHIVAIFQAPAGKTVDDPAWSKKVVDELNRFQQDHPDQVLGWAGYLRASQATGMATADKKYTFVSIPLKGDDDDTILNNYKAIAPDLQRLDGGTVKLAGLQPVAEALTGTIATDQRRMEVLALPLVAVVLFFVFGGVIAAGLPVMVGGLCIAGALGIMRFLAIFGPVHYFAQPVVSLIGLGIAIDYGLFIVSRFREEIAEGYDTETAVRRTVITAGRTVTFSAVLIVASAIGLLLFPQGFLKSLTYATIASVMLSAILSITVLPACLGILGKHVDALGVRTLFRVPFLANWKISAAYLNWLADRLQRTKTREEVEAGFWGKLVNRVMKRPVLFAAPIVIIMILLIIPVGKLSLGGISEKYLPPTNSVRQAQEEFDKLFPGYRTNPLTLVIQTSNHQPVTDAQIADIRSKAMAIGGFIEPDNDPANMWQERAYAVGASKDPSVRVLQNGLINPADASKKLTELRAITPPKGITVLVGGTPALELDSIHGLFAKMPLMVVILLTTTIVLMFLAFGSVVLPIKATLMSALTLGSTMGILTWIFVDGHFSKWLNFTPTPLTAPVIGLIIALVFGLSTDYEVFLVSRMVEARERGMSTQEAIRIGTAATGRIITAAALIVAVVAGAFVFSDLVMMKYLAFGLMAALLLDATVVRMFLVPSVMKLLGDDCWWAPRWARRLQTRIGLGEIHLPD
notes: also called Mtb-MmpL3 ΔC; Mtb MmpL3 ΔC
Does B1 bind?
Result: binds

— article PMC11352979, “The mycobacterium lipid transporter MmpL3 is dimeric in detergent solution, SMALPs and reconstituted nanodiscs†” (RSC Chemical Biology, 2024)
